Holding throughout (experiment): fluorescence anisotropy; FA: 20 mM HEPES-NaOH pH 7.5, 100 mM NaCl, 10% glycerol, 20 C, 10 nM FAM-RNA; competition: 150 nM Egl512-819 + 10 nM FAM-K10 TLS, same buffer
Common to all, as to settings: protein: recombinant; tags: N-terminal GST; label: 5'-6-FAM; hairpin with two bulges

One data set concerns the target T1, R619E (Drosophila melanogaster, UniProt Q9W1K4 512-819, R619E).
T1 sequence: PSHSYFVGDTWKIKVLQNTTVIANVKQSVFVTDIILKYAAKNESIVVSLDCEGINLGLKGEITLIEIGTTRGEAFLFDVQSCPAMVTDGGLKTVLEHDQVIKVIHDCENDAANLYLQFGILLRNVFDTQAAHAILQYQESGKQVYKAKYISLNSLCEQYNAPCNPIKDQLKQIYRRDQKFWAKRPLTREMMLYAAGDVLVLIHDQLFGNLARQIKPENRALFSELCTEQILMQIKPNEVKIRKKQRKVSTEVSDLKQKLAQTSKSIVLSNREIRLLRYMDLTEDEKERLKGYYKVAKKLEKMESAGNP

The target of another data set is T2, Egl512-931 (Drosophila melanogaster, UniProt Q9W1K4 512-931).
T2 sequence: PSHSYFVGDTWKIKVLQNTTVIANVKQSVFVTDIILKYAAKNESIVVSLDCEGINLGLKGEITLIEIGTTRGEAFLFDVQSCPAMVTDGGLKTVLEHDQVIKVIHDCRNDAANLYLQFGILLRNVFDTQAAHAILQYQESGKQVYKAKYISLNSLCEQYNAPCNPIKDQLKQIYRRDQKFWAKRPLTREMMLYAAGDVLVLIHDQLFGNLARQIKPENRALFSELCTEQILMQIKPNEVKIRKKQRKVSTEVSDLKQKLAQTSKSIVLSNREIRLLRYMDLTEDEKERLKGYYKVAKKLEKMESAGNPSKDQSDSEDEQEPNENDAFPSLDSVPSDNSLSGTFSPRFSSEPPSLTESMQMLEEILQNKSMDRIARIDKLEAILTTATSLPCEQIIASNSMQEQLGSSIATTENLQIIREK

A further data set concerns the target T3, K751A (Drosophila melanogaster, UniProt Q9W1K4 512-819, K751A).
T3 sequence: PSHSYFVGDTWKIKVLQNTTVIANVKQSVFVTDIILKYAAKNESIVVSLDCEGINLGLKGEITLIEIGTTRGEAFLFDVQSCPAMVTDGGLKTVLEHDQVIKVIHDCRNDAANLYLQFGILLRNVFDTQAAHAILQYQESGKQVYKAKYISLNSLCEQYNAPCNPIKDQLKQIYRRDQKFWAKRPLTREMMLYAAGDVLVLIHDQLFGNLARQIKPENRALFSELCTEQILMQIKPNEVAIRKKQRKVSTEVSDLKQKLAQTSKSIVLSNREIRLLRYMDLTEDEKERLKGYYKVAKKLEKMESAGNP

A further data set addresses T4, K755A (Drosophila melanogaster, UniProt Q9W1K4 512-819, K755A).
T4 sequence: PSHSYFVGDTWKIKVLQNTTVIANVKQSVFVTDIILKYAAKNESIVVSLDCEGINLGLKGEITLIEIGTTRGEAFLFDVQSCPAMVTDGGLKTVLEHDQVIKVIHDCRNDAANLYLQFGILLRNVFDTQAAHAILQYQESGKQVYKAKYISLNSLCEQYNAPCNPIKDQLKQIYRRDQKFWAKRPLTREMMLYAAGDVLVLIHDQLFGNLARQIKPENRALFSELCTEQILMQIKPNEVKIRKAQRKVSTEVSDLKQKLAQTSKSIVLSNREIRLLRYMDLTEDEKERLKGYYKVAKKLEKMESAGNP

For the next data set, the target named is T5, K751E (Drosophila melanogaster, UniProt Q9W1K4 512-819, K751E).
T5 sequence: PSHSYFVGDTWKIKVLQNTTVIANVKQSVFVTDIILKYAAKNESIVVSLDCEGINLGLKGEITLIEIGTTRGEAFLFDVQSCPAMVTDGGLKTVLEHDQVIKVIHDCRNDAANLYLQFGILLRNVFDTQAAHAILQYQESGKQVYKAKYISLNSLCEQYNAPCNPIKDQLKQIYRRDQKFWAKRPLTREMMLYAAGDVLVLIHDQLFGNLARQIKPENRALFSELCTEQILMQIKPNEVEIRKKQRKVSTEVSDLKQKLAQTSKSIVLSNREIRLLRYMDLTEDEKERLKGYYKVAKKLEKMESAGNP

In another data set the target is T6, R785A (Drosophila melanogaster, UniProt Q9W1K4 512-819, R785A).
T6 sequence: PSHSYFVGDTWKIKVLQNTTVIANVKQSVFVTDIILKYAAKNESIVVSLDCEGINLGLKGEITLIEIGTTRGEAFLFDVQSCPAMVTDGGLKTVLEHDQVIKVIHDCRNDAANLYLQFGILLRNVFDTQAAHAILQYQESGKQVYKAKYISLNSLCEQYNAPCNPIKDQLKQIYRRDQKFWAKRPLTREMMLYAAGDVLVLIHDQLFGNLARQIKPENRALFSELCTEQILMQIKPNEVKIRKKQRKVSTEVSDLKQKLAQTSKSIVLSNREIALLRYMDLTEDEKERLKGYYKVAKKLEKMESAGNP

Turning to CUUGAUUGUAUUUUUAAAUUAAUUCUUAAAAACUACAAAUUAAG (structured_RNA) [K10 TLS (FAM)], the Kd with R619E amounted to 318 ± 15 nM; in the data set with Egl512-931, 164 ± 7 nM; with K751A, 140 ± 10 nM; with K755A it was 131 ± 5 nM; with K751E, 139 ± 28 nM; in the data set with R785A it was 194 ± 10 nM.

A word on the Kd: it is the free concentration of one partner at which half of the binding sites on the other are occupied at equilibrium, for simple one-to-one binding.

For the origin of these results see paper doi:10.1101/2025.08.03.668247, “The structure of Egalitarian in complex with the K10 mRNA localization signal reveals a modular binding surface required for function”.
